In experiment [1] the target is T1, human NPRA on HEK293 cells, without added ligand (human, UniProt P16066 33-1061).
T1 construct: a signal peptide is not delimited; also called HEK NPRA cells; HEK hNPRA cells
T1 sequence: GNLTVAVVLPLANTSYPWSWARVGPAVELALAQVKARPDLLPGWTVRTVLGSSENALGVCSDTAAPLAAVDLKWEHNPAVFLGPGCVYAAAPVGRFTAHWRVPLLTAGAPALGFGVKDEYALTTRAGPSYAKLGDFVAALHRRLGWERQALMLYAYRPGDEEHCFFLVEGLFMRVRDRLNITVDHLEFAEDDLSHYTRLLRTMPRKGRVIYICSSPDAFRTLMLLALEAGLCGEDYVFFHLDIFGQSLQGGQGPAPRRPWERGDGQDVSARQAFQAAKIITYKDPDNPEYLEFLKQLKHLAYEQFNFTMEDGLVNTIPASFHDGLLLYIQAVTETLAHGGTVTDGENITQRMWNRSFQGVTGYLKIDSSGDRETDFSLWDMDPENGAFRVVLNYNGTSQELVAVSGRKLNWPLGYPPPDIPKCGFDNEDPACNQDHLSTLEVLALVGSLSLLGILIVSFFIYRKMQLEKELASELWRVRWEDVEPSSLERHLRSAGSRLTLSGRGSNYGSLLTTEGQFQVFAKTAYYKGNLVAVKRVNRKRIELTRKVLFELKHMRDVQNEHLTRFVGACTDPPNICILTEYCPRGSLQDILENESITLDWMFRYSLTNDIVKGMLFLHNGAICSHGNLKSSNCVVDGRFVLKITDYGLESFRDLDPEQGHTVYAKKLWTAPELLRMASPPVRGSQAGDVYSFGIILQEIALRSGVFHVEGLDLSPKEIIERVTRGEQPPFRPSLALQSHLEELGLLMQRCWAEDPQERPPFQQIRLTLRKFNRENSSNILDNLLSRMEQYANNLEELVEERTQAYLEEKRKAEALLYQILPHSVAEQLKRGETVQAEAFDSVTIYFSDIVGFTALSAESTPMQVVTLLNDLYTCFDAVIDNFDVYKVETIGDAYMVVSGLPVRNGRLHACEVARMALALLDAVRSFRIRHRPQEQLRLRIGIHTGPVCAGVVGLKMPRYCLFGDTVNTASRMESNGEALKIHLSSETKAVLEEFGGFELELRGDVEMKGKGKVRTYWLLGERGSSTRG
Briefly: FACS, HEK NPRA cells without ligand. (In general: Flow cytometry measures light scatter and fluorescence of single cells or particles in a stream.)

In experiment [2] the target is T2, human NPRB on HEK293 cells in the presence of CNP (human, UniProt P20594 23-1047; P23582 105-126).
T2 construct: whole, on cells;mature; also called HEK NPRB cells + 100 nM CNP
Briefly: FACS, HEK NPRB cells with 100 nM CNP.
Protocol: HEK NPRA cells are detached with Accutase (PAA Laboratories GmbH, Cat. No. L11-007, Austria), harvested by centrifugation (900 rpm, 4 minutes) and resuspended in FACS buffer (PBS/3% FCS/0.02% NaN3) to a final concentration of 10⁶ cells/ml. 100 μl of the cell suspension is transferred to each well of a 96 round bottom plate (TC Microwell 96U, Nunc). […] Cells are washed in 150 μl of FACS buffer, pelleted and resuspended in 50 μl of the solution containing the primary antibody comprising a BEL extract of Fabs, a diluted BEL extract or purified antibody diluted in FACS buffer and incubated on ice for 30 min. Cells are washed again in FACS buffer and resuspended in 50 μl of FACS buffer containing the secondary antibody (R-Phycoerythrin-conjugated Affipure F(ab′)₂ Fragment Goat Anti-Human IgG, Dianova) and incubated on ice for 45 min. Cells are washed twice with FACS buffer and resuspended in 200 μl of FACS buffer for analysis in the FACS Array (BD Biosciences).

The target of experiment [3] is T3, rat NPRA on HEK cells bound to ANP (rat, UniProt P18910 29-1057; P01161 123-150).
T3 sequence (looked up): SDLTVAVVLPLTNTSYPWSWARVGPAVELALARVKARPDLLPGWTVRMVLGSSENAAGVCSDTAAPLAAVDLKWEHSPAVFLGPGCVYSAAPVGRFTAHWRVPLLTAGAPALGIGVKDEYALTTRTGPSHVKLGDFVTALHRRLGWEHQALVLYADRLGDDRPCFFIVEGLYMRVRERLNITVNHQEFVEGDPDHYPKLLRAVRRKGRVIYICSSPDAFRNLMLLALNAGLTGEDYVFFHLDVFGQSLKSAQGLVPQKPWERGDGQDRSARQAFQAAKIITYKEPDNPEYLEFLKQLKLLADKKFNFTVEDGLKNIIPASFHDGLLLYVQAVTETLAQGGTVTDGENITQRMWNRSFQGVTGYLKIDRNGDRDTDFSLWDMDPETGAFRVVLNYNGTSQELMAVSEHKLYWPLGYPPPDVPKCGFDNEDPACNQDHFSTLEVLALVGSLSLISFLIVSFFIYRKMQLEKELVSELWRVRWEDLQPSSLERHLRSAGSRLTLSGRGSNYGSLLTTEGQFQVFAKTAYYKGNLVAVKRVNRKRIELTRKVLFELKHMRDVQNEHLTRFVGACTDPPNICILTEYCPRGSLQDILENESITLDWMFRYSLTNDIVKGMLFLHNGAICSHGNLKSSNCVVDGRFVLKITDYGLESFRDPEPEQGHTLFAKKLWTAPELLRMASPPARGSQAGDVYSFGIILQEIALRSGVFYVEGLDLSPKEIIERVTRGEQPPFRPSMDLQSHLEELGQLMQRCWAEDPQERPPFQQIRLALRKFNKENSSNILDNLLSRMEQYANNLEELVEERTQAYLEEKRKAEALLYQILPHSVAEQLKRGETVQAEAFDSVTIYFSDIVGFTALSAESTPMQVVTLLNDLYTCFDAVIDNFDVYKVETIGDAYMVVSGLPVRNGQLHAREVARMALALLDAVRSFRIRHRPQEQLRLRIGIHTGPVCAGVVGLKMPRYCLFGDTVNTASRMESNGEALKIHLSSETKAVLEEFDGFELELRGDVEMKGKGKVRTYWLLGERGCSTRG
T3 sequence (peptide, looked up): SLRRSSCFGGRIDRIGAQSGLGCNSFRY
Put plainly: cell-based or functional assay.

For experiment [4], the target named is canine NPRA on HEK cells bound to ANP (canine, UniProt A0A8I3MHU3 32-1060). Put plainly: KinExA whole cell binding (Kd,app), HEK cells with canine NPRA, ANP bound. For orientation: A kinetic exclusion assay measures how much of one partner remains free in solution.

Changes are numbered by the printed parent chain.

Sequence of canine NPRA on HEK cells bound to ANP (A0A8I3MHU3 entry or part of it): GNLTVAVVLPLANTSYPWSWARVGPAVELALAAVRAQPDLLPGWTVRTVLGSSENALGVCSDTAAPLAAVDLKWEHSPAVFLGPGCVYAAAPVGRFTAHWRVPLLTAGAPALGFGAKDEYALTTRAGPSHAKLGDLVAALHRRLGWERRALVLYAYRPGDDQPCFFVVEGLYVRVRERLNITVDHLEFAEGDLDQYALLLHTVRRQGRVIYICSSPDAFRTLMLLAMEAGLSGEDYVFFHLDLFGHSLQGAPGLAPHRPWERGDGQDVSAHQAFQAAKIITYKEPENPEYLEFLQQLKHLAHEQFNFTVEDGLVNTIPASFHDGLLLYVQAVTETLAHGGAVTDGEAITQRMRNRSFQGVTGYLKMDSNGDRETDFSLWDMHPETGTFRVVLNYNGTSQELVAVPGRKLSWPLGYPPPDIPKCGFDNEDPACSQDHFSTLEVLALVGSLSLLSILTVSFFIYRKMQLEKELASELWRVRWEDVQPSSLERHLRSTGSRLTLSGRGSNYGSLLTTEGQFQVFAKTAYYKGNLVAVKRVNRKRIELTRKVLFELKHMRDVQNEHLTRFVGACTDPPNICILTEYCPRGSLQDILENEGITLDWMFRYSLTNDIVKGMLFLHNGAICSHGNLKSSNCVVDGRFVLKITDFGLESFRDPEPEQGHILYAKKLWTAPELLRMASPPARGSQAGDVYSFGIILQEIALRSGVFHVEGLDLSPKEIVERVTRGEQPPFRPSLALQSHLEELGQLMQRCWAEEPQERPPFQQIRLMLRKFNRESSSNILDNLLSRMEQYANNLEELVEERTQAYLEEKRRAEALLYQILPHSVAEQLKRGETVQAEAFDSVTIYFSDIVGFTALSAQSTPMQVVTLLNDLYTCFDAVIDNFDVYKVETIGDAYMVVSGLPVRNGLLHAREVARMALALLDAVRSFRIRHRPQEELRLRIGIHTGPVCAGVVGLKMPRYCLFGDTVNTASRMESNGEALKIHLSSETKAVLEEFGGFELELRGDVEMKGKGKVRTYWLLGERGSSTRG
T2 sequence (P20594 23-1047 limits assumed, chain 1 of 2): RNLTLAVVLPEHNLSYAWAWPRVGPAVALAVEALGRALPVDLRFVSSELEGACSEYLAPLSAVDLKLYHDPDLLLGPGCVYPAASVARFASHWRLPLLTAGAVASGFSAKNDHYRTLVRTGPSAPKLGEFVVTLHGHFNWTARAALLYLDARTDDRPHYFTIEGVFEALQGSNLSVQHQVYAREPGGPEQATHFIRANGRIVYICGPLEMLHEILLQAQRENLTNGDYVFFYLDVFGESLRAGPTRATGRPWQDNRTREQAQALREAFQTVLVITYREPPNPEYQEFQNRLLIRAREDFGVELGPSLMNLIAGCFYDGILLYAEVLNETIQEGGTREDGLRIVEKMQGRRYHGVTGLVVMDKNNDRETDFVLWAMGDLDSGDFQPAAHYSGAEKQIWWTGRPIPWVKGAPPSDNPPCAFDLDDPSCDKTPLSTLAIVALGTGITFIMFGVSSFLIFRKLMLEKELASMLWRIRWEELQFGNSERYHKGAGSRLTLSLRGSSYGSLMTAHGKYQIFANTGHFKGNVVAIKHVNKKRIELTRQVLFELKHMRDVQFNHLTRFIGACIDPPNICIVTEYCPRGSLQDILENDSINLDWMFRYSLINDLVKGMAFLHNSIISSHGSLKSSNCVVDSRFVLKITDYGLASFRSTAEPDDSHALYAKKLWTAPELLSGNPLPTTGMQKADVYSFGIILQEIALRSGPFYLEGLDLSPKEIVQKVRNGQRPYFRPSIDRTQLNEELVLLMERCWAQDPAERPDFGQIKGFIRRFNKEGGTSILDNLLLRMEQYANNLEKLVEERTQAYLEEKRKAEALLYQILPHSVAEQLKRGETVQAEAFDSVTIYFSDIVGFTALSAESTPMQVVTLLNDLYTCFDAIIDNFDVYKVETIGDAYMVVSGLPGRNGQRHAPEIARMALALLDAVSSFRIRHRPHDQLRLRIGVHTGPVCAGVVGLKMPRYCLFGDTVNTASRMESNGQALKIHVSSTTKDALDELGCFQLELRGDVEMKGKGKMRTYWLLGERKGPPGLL
T2 sequence (P23582 105-126 limits assumed, chain 2 of 2): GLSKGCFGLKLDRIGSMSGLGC

B1: 5502 IgG4_Pro (antibody, V domains shown)
VH: QVQLQQSGPGLVKPSQTLSLTCAISGDSVSSRSASWSWIRQSPGRGLEWLGRIYYRSKWYNDYAVSVKSRITINPDTSKNQFSLQLNSVTPEDTAVYYCARMDVPSFRYFDVWGQGTLVTVSS
VL: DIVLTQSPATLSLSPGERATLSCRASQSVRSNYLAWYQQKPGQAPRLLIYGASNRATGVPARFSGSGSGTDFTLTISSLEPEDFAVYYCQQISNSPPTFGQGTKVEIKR
notes: Human IgG4_Pro
Regarding B1, the binding result in experiment [1] and in experiment [2] was “no binding (tested: 20 nM)” throughout.

B2: 5591 IgG4_Pro (antibody, V domains shown)
VH: B1 VH with I53T, K58H, N61Y, D62E, V65Q
VL: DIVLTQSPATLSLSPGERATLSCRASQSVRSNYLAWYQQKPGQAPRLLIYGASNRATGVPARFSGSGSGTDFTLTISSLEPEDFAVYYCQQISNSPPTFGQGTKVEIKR
Consider B2, for which, in experiment [3], the “Fold shift in EC50 of ANP (cGMP), HEK cells with rat NPRA” value worked out at 3 fold. In experiment [4], this molecule registered a Kd of 0.096 nM.

(Values after US20160168251A1 (MorphoSys, published 2016).)
